The series concerns the molecule itself. Kind of series: SEC-MALS; TSK-Gel G3000 SWXL column, 150 mM NaCl, 20 mM Tris-HCl (pH 8.0), 0.5 mL/min, Mini-DAWN light scattering detector. A general note: In gel filtration, larger molecules generally elute earlier.

B1: Pseudomonas aeruginosa isocitrate lyase (ICL, PA2634) (enzyme, Pseudomonas aeruginosa strain PAO1, UniProt Q9I0K4 1-531, looked up)
chain: MSAYQNEIKAVAALKEKNGSSWSAINPEYAARMRIQNRFKTGLDIAKYTAAIMRKDMAEYDADSSVYTQSLGCWHGFIGQQKLISIKKHLKTTNKRYLYLSGWMVAALRSDFGPLPDQSMHEKTAVSGLIEELYTFLRQADARELDLLFTGLDAARAAGDKAKEAELLAQIDNFETHVVPIIADIDAGFGNAEATYLLAKKMIEAGACCIQIENQVSDEKQCGHQDGKVTVPHIDFLAKINAVRYAFLELGVDDGVIVARTDSLGAGLTKQIAVTNEPGDLGDLYNSFLDCEEISESELGNGDVVIKREGKLLRPKRLASNLFQFRKGTGEDRCVLDCITSLQNGADLLWIETEKPHVGQIKAMVDRIREVIPNAKLVYNNSPSFNWTLNFRQQVFDAFVAEGKDVSAYDRNKLMSVEYDDTELAKVADEKIRTFQRDGSAHAGIFHHLITLPTYHTAALSTDNLAKGYFADEGMLAYVKGVQRQELRQGIACVKHQNMAGSDIGDNHKEYFAGEAALKASGKDNTMNQFH
notes: isocitrate lyase (ICL), ORF PA2634 of Pseudomonas aeruginosa strain PAO1, 531 amino acids; The ORF was cloned into a pMAL-c2X derivative with a hexa-histidine tag on the N-terminus of MBP; The His6-MBP tag was cut off with Factor Xa; Crystallised with Ca2+ and glyoxylate; also called P. aeruginosa ICL; source: E. coli DH5α, purified (amylose resin, Factor Xa cleavage, Ni-NTA flow through); not …
As usually defined, the stoichiometry N is the number of molecules, sites or subunits per partner or assembly. Consider B1, for which the “stoichiometry N” value was determined as 4.

B2: Pseudomonas aeruginosa isocitrate dehydrogenase ICD (PA2623) (enzyme, Pseudomonas aeruginosa strain PAO1, UniProt Q02NB5 1-418, looked up)
chain: MGYQKIQVPATGDKITVNADMSLSVPKNPIIPFIEGDGIGVDISPVMIKVVDAAVEKAYKGERKIAWMEVYAGEKATQVYDQDTWLPQETLDAVRDYVVSIKGPLTTPVGGGIRSLNVALRQQLDLYVCQRPVRWFEGVPSPVKKPGDVDMVIFRENSEDIYAGVEWKAGSPEAEKVIKFLTEEMGVKKIRFTENCGIGIKPVSQEGTKRLVRKALQYAVDNDRSSVTLVHKGNIMKFTEGAFKDWGYEVARDEFGAELLDGGPWMQFKNPKTGKNVVVKDVIADAMLQQILLRPAEYDVIATLNLNGDYLSDALAAEVGGIGIAPGANLSDSVAMFEATHGTAPKYAGQDKVNPGSLILSAEMMLRHMGWTEAADLIIKGTNGAIAAKTVTYDFERLMDGATLLSCSEFGDAMIAKM
notes: isocitrate dehydrogenase ICD, ORF PA2623 of Pseudomonas aeruginosa strain PAO1, calculated molecular mass 45 kDa; The ORF was cloned into a pMAL-c2X derivative with a hexa-histidine tag on the N-terminus of MBP; The His6-MBP tag was cut off with Factor Xa; also called P. aeruginosa ICD; source: E. coli DH5α, purified (amylose resin, Factor Xa cleavage, Ni-NTA flow through); not shown: His6, …
As to B2, the “stoichiometry N” value came to 2.
